T1: human CD30 (human, UniProt P28908 19-595)
T1 sequence (looked up): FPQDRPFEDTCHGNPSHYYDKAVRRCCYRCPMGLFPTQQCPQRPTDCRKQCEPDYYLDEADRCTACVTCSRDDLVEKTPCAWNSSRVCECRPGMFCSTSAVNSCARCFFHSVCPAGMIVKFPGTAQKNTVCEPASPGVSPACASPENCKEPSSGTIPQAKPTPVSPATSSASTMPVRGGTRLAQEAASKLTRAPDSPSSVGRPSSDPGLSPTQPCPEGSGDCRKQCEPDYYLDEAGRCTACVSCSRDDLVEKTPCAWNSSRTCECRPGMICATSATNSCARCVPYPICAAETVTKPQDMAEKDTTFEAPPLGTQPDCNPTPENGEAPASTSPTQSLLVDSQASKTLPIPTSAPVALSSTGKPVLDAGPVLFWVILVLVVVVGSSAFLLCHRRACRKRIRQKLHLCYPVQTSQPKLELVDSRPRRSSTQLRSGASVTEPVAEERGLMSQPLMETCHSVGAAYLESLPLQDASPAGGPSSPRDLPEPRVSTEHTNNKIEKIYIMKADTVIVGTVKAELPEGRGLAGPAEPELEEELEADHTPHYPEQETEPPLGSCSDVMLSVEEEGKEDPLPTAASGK

T2: cynomolgus CD30 on PHA, Con A and rIL-2 activated cynomolgus peripheral blood mononuclear cells (cynomolgus, UniProt A0A2K5VW07 29-603)
T2 construct: whole, on cells
T2 sequence: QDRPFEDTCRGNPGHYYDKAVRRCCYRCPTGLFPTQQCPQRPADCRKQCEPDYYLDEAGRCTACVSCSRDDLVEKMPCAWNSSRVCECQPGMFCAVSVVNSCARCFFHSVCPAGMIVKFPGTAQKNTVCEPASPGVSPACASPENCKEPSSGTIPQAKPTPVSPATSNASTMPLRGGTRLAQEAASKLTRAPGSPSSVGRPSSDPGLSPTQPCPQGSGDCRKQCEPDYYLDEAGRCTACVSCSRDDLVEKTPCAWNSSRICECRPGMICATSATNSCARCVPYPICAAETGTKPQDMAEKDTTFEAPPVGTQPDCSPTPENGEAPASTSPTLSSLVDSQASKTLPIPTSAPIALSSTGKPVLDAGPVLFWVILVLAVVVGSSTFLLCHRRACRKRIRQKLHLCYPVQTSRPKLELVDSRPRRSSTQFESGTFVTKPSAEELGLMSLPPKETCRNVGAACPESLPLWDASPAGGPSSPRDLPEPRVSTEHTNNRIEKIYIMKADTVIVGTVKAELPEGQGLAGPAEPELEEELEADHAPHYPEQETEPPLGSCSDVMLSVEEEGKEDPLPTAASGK


Columns and labels:
human CD30 [1] = molecular target: T1, human CD30; experiment: cell-based or functional assay
human CD30 [2] = molecular target: T1, human CD30; experiment: Scatchard analysis, 125I-labelled antibody on PHA/Con A/rIL-2-activated human peripheral blood cells, 4 °C
Description: (§1) Human or cynomolgus peripheral blood cells were stimulated with 2 μg/ml PHA, 10 μg/ml Con A, and 50 U/ml rIL-2 and cultured in RPMI1640 media containing 10% fetal bovine serum (FBS) at 1×10⁶ cells/ml density for 3 days. On the day of the study, the cells were washed and adjusted to 2×10⁷ cells/m in binding buffer (RPMI1640+10% FBS). As a control, CD30 positive L540 cells (adjusted to 4-8×10⁶ cells/ml) were used in these studies since they express high levels of the antigen. The cells were placed on ice until the initiation of the experiment. Millipore glass fiber filter plates (MAFBN0B50) were coated with 1% nonfat dry milk in water and stored a 4° C. overnight. The plates were washed three times with 0.2 ml of binding buffer. Fifty microliters of buffer alone was added to the maximum binding wells (total binding). Twenty-five microliters of buffer alone was added to the control wells. Varying concentration of ¹²⁵I-anti-CD30 antibody was added to all wells in a volume of 25 μL. Varying concentrations of unlabeled antibody at 300-400 fold excess were added in a volume of 25 μl to control wells (non-specific binding) and 25 μl of CD30 positive L540 cells or stimulated human or cynomolgus peripheral blood cells in binding buffer were added to all wells. The plates were incubated for 2 hours at 200 RPM on a shaker at 4° C. […] The filters were removed and counted in a gamma counter. […]

[3] = molecular target: T2, cynomolgus CD30 on PHA, Con A and rIL-2 …; experiment: Scatchard analysis, 125I-labelled antibody on PHA/Con A/rIL-2-activated cynomolgus peripheral blood mononuclear cells, 4 °C
Description: as §1

human CD30 [4] = molecular target: T1, human CD30; experiment: Scatchard analysis, 125I-labelled antibody on CD30 positive L540 cells, 4 °C
Description: as §1

Row | EC50 of ADCC, Karpas cells (human CD30 [1]) [µg/mL] | EC50 of ADCC, L428 cells (human CD30 [1]) [µg/mL] | EC50 of ADCC, L540 cells (human CD30 [1]) [µg/mL] | EC50 of ADCC, L1236 cells (human CD30 [1]) [µg/mL] | Kd (human CD30 [2]) [nM] | Kd [3] [nM] | Kd (human CD30 [4]) [nM] | % Lysis ratio fucose-:fucose+, ADCC, Karpas cells (human CD30 [1]) [fold] | % Lysis ratio fucose-:fucose+, ADCC, L428 cells (human CD30 [1]) [fold] | % Lysis ratio fucose-:fucose+, ADCC, L540 cells (human CD30 [1]) [fold] | % Lysis ratio fucose-:fucose+, ADCC, L1236 cells (human CD30 [1]) [fold] | EC50 ratio fucose+:fucose-, ADCC, Karpas cells (human CD30 [1]) [fold] | EC50 ratio fucose+:fucose-, ADCC, L428 cells (human CD30 [1]) [fold] | EC50 ratio fucose+:fucose-, ADCC, L540 cells (human CD30 [1]) [fold] | EC50 ratio fucose+:fucose-, ADCC, L1236 cells (human CD30 [1]) [fold] | Binder
1 | 0.25 | 0.1 | 0.042 | 1.22 | 1.08 | 0.47 | 1.37 | – | – | – | – | – | – | – | – | fucosylated 5F11 anti-CD30 fully human monoclonal antibody (expressed in CHO DG44 cells) (antibody, IgG1, V domains shown, It was made in CHO DG44 (FUT8+/+) cells, so the carbohydrate contains fucose; also called fuc-5F11; Anti-CD30 + fucose) VH: QVQLQQWGAGLLKPSETLSLTCAVYGGSFSAYYWSWIRQPPGKGLEWIGDINHGGGTNYNPSLKSRVTISVDTSKNQFSLKLNSVTAADTAVYYCASLTAYWGQGSLVTVSS VL: DIQMTQSPTSLSASVGDRVTITCRASQGISSWLTWYQQKPEKAPKSLIYAASSLQSGVPSRFSGSGSGTDFTLTISSLQPEDFATYYCQQYDSYPITFGQGTRLEIK
2 | – | – | – | – | – | – | – | 2.63 | 2.15 | 1.61 | 3.25 | 7.8 | 11.1 | 4.7 | 27.1 | defucosylated 5F11 anti-CD30 fully human monoclonal antibody (expressed in FUT8-/- Ms704 cells) (antibody, V domains shown) VH: QVQLQQWGAGLLKPSETLSLTCAVYGGSFSAYYWSWIRQPPGKGLEWIGDINHGGGTNYNPSLKSRVTISVDTSKNQFSLKLNSVTAADTAVYYCASLTAYWGQGSLVTVSS VL: DIQMTQSPTSLSASVGDRVTITCRASQGISSWLTWYQQKPEKAPKSLIYAASSLQSGVPSRFSGSGSGTDFTLTISSLQPEDFATYYCQQYDSYPITFGQGTRLEIK
